Measurements taken from PMC11965310, “Inhibition of tau neuronal internalization using anti-tau single domain antibodies” (Nature Communications, 2025).
One block for each binder: values may come before it.

What was measured:
Conditions in all cases: both partners purified
[1] = biological target: T1, tauMTBD (Homo sapiens, UniProt P10636, biotin (NHS-biotin, ratio 1:0.5) when immobilised in SPR; Atto488 NHS ester in the uptake assay); test: SPR; biotinylated tau2N4R, tau1N4R or tauMTBD captured on a streptavidin (SA) chip; VHHs without tag as analytes, 0.0625-4 μM, single-cycle kinetics; 25 °C, HBS EP+; 1:1 Langmuir model
T1 construct: also called tauMTBD fragment; source: E. coli BL21 (DE3), purified (heating at 75 °C, cation exchange)

[2] = biological target: T2, tau1N4R (Homo sapiens, UniProt P10636-7, biotin (NHS-biotin, 3 molar excess) when immobilised in SPR; Alexa Fluor 546 C5-maleimide on its two native cysteine residues in the uptake assay); test: as above
T2 construct: tau protein, isoform 1N4R; Used without a stated label as analyte on LRP1 cluster III; also called full-length tau1N4R; monomeric tau1N4R; source: E. coli BL21 (DE3), purified (heating at 75 °C, cation exchange)

[3] = biological target: T3, tau2N4R (Homo sapiens, UniProt P10636-8, biotin (NHS-biotin, 3 molar excess) when immobilised in SPR; 15N-labelled in NMR); test: as above
T3 construct: tau protein, isoform 2N4R, the largest tau isoform; Expressed from pET15b-tau2N4R; also called full-length tau2N4R; largest tau isoform; source: E. coli BL21 (DE3), purified (heating at 75 °C, cation exchange)

[4] = biological target: T4, tau[369–381] C-terminal peptide (Homo sapiens); test: SPR; biotinylated VHH-Cys captured on SA chip; tau[369-381] peptide as analyte, multi-cycle kinetics; 25 °C, HBS EP+; kinetic analysis, 1:1 Langmuir model
T4 construct: also called tau-C-ter peptide; tau-Cter peptide
T4 chain: KKIETHKLTFREN

[5] = biological target: T4, tau[369–381] C-terminal peptide; test: as above
[6] = biological target: T4, tau[369–381] C-terminal peptide; test: SPR; same data as the multi-cycle kinetics; steady-state analysis of maximum responses, one-site specific binding model
[7] = biological target: T4, tau[369–381] C-terminal peptide; test: AlphaScreen or HTRF; 6His-VHH bound by anti-6His antibody-Terbium (1.5 nM) and 6His-VHH bound by anti-6His antibody-D2 (20 nM); tau-Cter peptide 32 nM to 100 µM; 1 h at room temperature
[8] = biological target: T4, tau[369–381] C-terminal peptide; test: SPR; same data as the multi-cycle kinetics; steady-state analysis of maximum responses, one-site specific binding model

T3 sequence (P10636 other isoform, or with tags, fused parts or gaps): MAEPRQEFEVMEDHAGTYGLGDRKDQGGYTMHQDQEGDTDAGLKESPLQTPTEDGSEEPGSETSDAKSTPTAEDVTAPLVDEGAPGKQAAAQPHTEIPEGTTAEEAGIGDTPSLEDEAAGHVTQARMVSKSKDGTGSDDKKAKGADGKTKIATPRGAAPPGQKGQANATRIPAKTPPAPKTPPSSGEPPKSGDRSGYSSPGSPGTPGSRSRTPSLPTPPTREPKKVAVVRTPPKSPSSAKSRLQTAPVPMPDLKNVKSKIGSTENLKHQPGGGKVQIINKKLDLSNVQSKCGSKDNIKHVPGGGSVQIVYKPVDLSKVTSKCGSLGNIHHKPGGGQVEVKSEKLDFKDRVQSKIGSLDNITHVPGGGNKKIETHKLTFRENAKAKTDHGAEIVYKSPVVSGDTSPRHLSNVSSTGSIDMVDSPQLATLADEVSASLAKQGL
T2 sequence (P10636 other isoform, or with tags, fused parts or gaps): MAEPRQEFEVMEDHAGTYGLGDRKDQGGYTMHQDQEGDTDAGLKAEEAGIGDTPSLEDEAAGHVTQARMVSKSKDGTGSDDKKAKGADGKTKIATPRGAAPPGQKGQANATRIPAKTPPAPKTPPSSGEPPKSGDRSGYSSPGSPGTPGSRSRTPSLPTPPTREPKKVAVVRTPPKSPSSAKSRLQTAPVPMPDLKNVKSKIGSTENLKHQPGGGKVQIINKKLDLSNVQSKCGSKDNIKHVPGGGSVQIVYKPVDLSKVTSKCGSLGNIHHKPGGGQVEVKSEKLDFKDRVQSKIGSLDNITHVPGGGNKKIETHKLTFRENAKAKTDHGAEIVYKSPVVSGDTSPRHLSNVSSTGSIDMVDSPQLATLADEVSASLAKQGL
T1 sequence (P10636 whole entry, looked up, the tested form may be a part): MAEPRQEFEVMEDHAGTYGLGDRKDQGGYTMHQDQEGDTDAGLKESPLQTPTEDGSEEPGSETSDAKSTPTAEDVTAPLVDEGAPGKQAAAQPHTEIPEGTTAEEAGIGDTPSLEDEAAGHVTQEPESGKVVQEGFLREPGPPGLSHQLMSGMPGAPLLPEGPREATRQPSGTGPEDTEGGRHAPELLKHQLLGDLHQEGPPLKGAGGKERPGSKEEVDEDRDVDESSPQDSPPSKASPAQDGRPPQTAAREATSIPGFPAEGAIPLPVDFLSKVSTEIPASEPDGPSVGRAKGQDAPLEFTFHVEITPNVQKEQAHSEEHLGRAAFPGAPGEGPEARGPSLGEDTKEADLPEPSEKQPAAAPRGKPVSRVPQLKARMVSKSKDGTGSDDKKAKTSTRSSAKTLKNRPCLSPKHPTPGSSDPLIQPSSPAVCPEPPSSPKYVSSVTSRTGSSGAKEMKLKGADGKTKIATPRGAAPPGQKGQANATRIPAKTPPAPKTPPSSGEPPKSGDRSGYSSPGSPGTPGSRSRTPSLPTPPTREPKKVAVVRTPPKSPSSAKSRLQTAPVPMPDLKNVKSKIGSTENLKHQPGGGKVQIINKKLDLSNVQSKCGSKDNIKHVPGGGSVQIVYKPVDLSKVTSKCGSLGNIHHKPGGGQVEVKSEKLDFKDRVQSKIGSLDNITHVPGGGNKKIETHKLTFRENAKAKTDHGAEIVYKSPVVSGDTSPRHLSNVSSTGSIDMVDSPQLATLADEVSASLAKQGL

EC50 [7]: 2700 nM
B3: 6His-VHH H3-2 (VHH)
VHH: EVQLQASGGGFVQPGGSLRLSCAASGYTSGDEIMGWFRQAPGKEREFVSAISWQSGTSTYYADSVKGRFTISRDNSKNTVYLQMNSLRAEDTATYYCAPMTLAETYYEWLISGYWGQGTQVTVSS
notes: as the VHH chain of m8; The construct has a TEV site between the 6-His tag and the VHH; also called 6Histag-H3-2; source: E. coli periplasm, purified; not shown: His6, N-terminal, kept

Kd [2]: 740 nM
koff [2]: 0.0425 s⁻¹
kon [2]: 57500 M⁻¹ s⁻¹
Kd [3]: 753 nM
koff [3]: 0.04 s⁻¹
kon [3]: 53100 M⁻¹ s⁻¹
B4: VHH F8-2 (VHH)
VHH: EVQLQASGGGFVQPGGSLRLSCAASGGTSYWDGMGWFRQAPGKEREFVSAISGRGNIGTYYADSVKGRFTISRDNSKNTVYLQMNSLRAEDTATYYCAAFRHEVHGSMRHEWEVIKYWGQGTQVTVSS
notes: source: E. coli periplasm, purified (IMAC, SEC, TEV cleavage, second IMAC); not shown: His6, N-terminal, cleaved

binding result [1]: no binding (tested: 4 μM)
Kd [2]: 96 nM
koff [2]: 0.0045 s⁻¹
kon [2]: 46700 M⁻¹ s⁻¹
Kd [3]: 84 nM
koff [3]: 0.0038 s⁻¹
kon [3]: 44900 M⁻¹ s⁻¹
B5: VHH E2-2 (VHH)
VHH: EVQLQASGGGFVQPGGSLRLSCAASGSTYDFDAMGWFRQAPGKEREFVSAISGDADLARYYADSVKGRFTISRDNSKNTVYLQMNSLRAEDTATYYCAAFRHEVHGSMRHEWEVIKYWGQGTQVTVSS
notes: From the Nali-H1 VHH library; source: E. coli periplasm, purified (IMAC, SEC, TEV cleavage, second IMAC); not shown: His6, N-terminal, cleaved

Continued, binder first:

B1: VHH H3-2 (VHH)
VHH: B3 VHH
notes: From the Nali-H1 VHH library; Forms a swapped dimer in the crystal and mostly a dimer in SEC at 20 µM; Coupled to 10 nm gold beads for electron microscopy; source: E. coli periplasm, purified (IMAC, SEC, TEV cleavage, second IMAC); not shown: His6, N-terminal, cleaved
binding result [1]: no binding (tested: 4 μM)
Kd [2]: 11 nM
koff [2]: 0.006 s⁻¹
kon [2]: 554000 M⁻¹ s⁻¹
Kd [3]: 8.9 nM
koff [3]: 0.0056 s⁻¹
kon [3]: 630000 M⁻¹ s⁻¹

B2: biotinylated VHH H3-2 with a cysteine at the C-terminus (VHH)
VHH: B3 VHH
notes: as the VHH chain of m8; additional C-terminal cysteine; source: E. coli periplasm, purified (IMAC, SEC, TEV cleavage, second IMAC); not shown: His6, N-terminal, cleaved
Kd [4]: 280 nM
koff [4]: 0.071 s⁻¹
kon [4]: 192000 M⁻¹ s⁻¹
Kd [5]: 297 to 380 nM
Kd [6]: 297 nM
stoichiometry N [6]: 0.41

B6: biotinylated VHH E2-2 with a cysteine at the C-terminus (VHH)
VHH: B5 VHH
notes: as the VHH chain of m11; additional C-terminal cysteine; source: E. coli periplasm, purified (IMAC, SEC, TEV cleavage, second IMAC); not shown: His6, N-terminal, cleaved
Kd [4]: 820 nM
koff [4]: 0.124 s⁻¹
kon [4]: 154000 M⁻¹ s⁻¹
Kd [8]: 518 to 820 nM
Kd [6]: 578 nM
stoichiometry N [6]: 0.45
